According to article PMC8117407 (Science (New York, N.Y.), 2020):

B1: mXFP-EpoR coexpressed with JAK2 V617F-mEGFP (complex)
chain 1: APPPNLPDPKFESKAALLAARGPEELLCFTERLEDLVCFWEEAASAGVGPGNYSFSYQLEDEPWKLCRLHQAPTARGAVRFWCSLPTADTSSFVPLELRVTAASGAPRYHRVIHINEVVLLDAPVGLVARLADESGHVVLRWLPPPETPMTSHIRYEVDVSAGNGAGSVQRVEILEGRTECVLSNLRGRTRYTFAVRARMAEPSFGGFWSAWSEPVSLLTPSDLDPLILTLSLILVVILVLLTVLALLSHRRALKQKIWPGIPSPESEFEGLFTTHKGNFQLWLYQNDGCLWWSPCTPFTEDPPASLEVLSERCWGTMQAVEPGTDDEGPLLEPVGSEHAQDTYLVLDKWLLPRNPPSEDLPGPGGSVDIVAMDEGSEASSCSSALASKPSPEGASAASFEYTILDPSSQLLRPWTLCPELPPTPPHLKYLYLVVSDSGISTDYSSGDSQGAQGGLSDGPYSNPYENSLIPAAEPLPPSYVACS
chain 2: MGMACLTMTEMEGTSTSSIYQNGDISGNANSMKQIDPVLQVYLYHSLGKSEADYLTFPSGEYVAEEICIAASKACGITPVYHNMFALMSETERIWYPPNHVFHIDESTRHNVLYRIRFYFPRWYCSGSNRAYRHGISRGAEAPLLDDFVMSYLFAQWRHDFVHGWIKVPVTHETQEECLGMAVLDMMRIAKENDQTPLAIYNSISYKTFLPKCIRAKIQDYHILTRKRIRYRFRRFIQQFSQCKATARNLKLKYLINLETLQSAFYTEKFEVKEPGSGPSGEEIFATIIITGNGGIQWSRGKHKESETLTEQDLQLYCDFPNIIDVSIKQANQEGSNESRVVTIHKQDGKNLEIELSSLREALSFVSLIDGYYRLTADAHHYLCKEVAPPAVLENIQSNCHGPISMDFAISKLKKAGNQTGLYVLRCSPKDFNKYFLTFAVERENVIEYKHCLITKNENEEYNLSGTKKNFSSLKDLLNCYQMETVRSDNIIFQFTKCCPPKPKDKSNLLVFRTNGVSDVPTSPTLQRPTHMNQMVFHKIRNEDLIFNESLGQGTFTKIFKGVRREVGDYGQLHETEVLLKVLDKAHRNYSESFFEAASMMSKLSHKHLVLNYGVCFCGDENILVQEFVKFGSLDTYLKKNKNCINILWKLEVAKQLAWAMHFLEENTLIHGNVCAKNILLIREEDRKTGNPPFIKLSDPGISITVLPKDILQERIPWVPPECIENPKNLNLATDKWSFGTTLWEICSGGDKPLSALDSQRKLQFYEDRHQLPAPKWAELANLINNCMDYEPDFRPSFRAIIRDLNSLFTPDYELLTENDMLPNMRIGALGFSGAFEDRDPTQFEERHLKFLQQLGKGNFGSVEMCRYDPLQDNTGEVVAVKKLQHSTEEHLRDFEREIEILKSLQHDNIVKYKGVCYSAGRRNLKLIMEYLPYGSLRDYLQKHKERIDHIKLLQYTSQICKGMEYLGTKRYIHRDLATRNILVENENRVKIGDFGLTKVLPQDKEYYKVKEPGESPIFWYAPESLTESKFSVASDVWSFGVVLYELFTYIEKSKSPPAEFMRMIGNDKQGQMIVFHLIELLKNNGRLPRPDGCPDEIYMIMTECWNNNVNQRPSFRDLALRVDQIRDNMAG
B2: mXFP-GHR coexpressed with JAK2 V617F-mEGFP (complex)
chain 1: FSGSEATAAILSRAPWSLQSVNPGLKTNSSKEPKFTKCRSPERETFSCHWTDEVHHGTKNLGPIQLFYTRRNTQEWTQEWKECPDYVSAGENSCYFNSSFTSIWIPYCIKLTSNGGTVDEKCFSVDEIVQPDPPIALNWTLLNVSLTGIHADIQVRWEAPRNADIQKGWMVLEYELQYKEVNETKWKMMDPILTTSVPVYSLKVDKEYEVRVRSKQRNSGNYGEFSEVLYVTLPQMSQFTCEEDFYFPWLLIIIFGIFGLTVMLFVFLFSKQQRIKMLILPPVPVPKIKGIDPDLLKEGKLEEVNTILAIHDSYKPEFHSDDSWVEFIELDIDEPDEKTEESDTDRLLSSDHEKSHSNLGVKDGDSGRTSCCEPDILETDFNANDIHEGTSEVAQPQRLKGEADLLCLDQKNQNNSPYHDACPATQQPSVIQAEKNKPQPLPTEGAESTHQAAHIQLSNPSSLSNIDFYAQVSDITPAGSVVLSPGQKNKAGMSQCDMHPEMVSLCQENFLMDNAYFCEADAKKCIPVAPHIKVESHIQPSLNQEDIYITTESLTTAAGRPGTGEHVPGSEMPVPDYTSIHIVQSPQGLILNATALPLPDKEFLSSCGYVSTDQLNKIMP
chain 2: B1 chain 2

Biological target: the molecule itself
Assay: dual-colour single-molecule co-tracking

| Protein | ligand-independent dimerization relative to ligand-induced dimerization [%] |
| --- | --- |
| B1 | ~25 |
| B2 | ~10 |
